In US20110091994A1, “Methods for Screening Compounds for Treating and/or Preventing an Hepatitis C Virus Infection” (priority 2008, published 2011):
Read-outs that look alike come from different tables or passages of the source.

B1: ACTN1 (protein, UniProt P12814 1-892, looked up)
Alpha-actinin-1: MDHYDSQQTNDYMQPEEDWDRDLLLDPAWEKQQRKTFTAWCNSHLRKAGTQIENIEEDFRDGLKLMLLLEVISGERLAKPERGKMRVHKISNVNKALDFIASKGVKLVSIGAEEIVDGNVKMTLGMIWTIILRFAIQDISVEETSAKEGLLLWCQRKTAPYKNVNIQNFHISWKDGLGFCALIHRHRPELIDYGKLRKDDPLTNLNTAFDVAEKYLDIPKMLDAEDIVGTARPDEKAIMTYVSSFYHAFSGAQKAETAANRICKVLAVNQENEQLMEDYEKLASDLLEWIRRTIPWLENRVPENTMHAMQQKLEDFRDYRRLHKPPKVQEKCQLEINFNTLQTKLRLSNRPAFMPSEGRMVSDINNAWGCLEQVEKGYEEWLLNEIRRLERLDHLAEKFRQKASIHEAWTDGKEAMLRQKDYETATLSEIKALLKKHEAFESDLAAHQDRVEQIAAIAQELNELDYYDSPSVNARCQKICDQWDNLGALTQKRREALERTEKLLETIDQLYLEYAKRAAPFNNWMEGAMEDLQDTFIVHTIEEIQGLTTAHEQFKATLPDADKERLAILGIHNEVSKIVQTYHVNMAGTNPYTTITPQEINGKWDHVRQLVPRRDQALTEEHARQQHNERLRKQFGAQANVIGPWIQTKMEEIGRISIEMHGTLEDQLSHLRQYEKSIVNYKPKIDQLEGDHQLIQEALIFDNKHTNYTMEHIRVGWEQLLTTIARTINEVENQILTRDAKGISQEQMNEFRASFNHFDRDHSGTLGPEEFKACLISLGYDIGNDPQGEAEFARIMSIVDPNRLGVVTFQAFIDFMSRETADTDTADQVMASFKILAGDKNYITMDELRRELPPDQAEYCIARMAPYTGPDSVPGALDYMSFSTALYGESDL
B2: AEBP1 (protein, UniProt Q8IUX7 26-1158, looked up)
Adipocyte enhancer-binding …: QTVLTDDEIEEFLEGFLSELEPEPREDDVEAPPPPEPTPRVRKAQAGGKPGKRPGTAAEVPPEKTKDKGKKGKKDKGPKVPKESLEGSPRPPKKGKEKPPKATKKPKEKPPKATKKPKEKPPKATKKPKEKPPKATKKPPSGKRPPILAPSETLEWPLPPPPSPGPEELPQEGGAPLSNNWQNPGEETHVEAREHQPEPEEETEQPTLDYNDQIEREDYEDFEYIRRQKQPRPPPSRRRRPERVWPEPPEEKAPAPAPEERIEPPVKPLLPPLPPDYGDGYVIPNYDDMDYYFGPPPPQKPDAERQTDEEKEELKKPKKEDSSPKEETDKWAVEKGKDHKEPRKGEELEEEWTPTEKVKCPPIGMESHRIEDNQIRASSMLRHGLGAQRGRLNMQTGATEDDYYDGAWCAEDDARTQWIEVDTRRTTRFTGVITQGRDSSIHDDFVTTFFVGFSNDSQTWVMYTNGYEEMTFHGNVDKDTPVLSELPEPVVARFIRIYPLTWNGSLCMRLEVLGCSVAPVYSYYAQNEVVATDDLDFRHHSYKDMRQLMKVVNEECPTITRTYSLGKSSRGLKIYAMEISDNPGEHELGEPEFRYTAGIHGNEVLGRELLLLLMQYLCREYRDGNPRVRSLVQDTRIHLVPSLNPDGYEVAAQMGSEFGNWALGLWTEEGFDIFEDFPDLNSVLWGAEERKWVPYRVPNNNLPIPERYLSPDATVSTEVRAIIAWMEKNPFVLGANLNGGERLVSYPYDMARTPTQEQLLAAAMAAARGEDEDEVSEAQETPDHAIFRWLAISFASAHLTLTEPYRGGCQAQDYTGGMGIVNGAKWNPRTGTINDFSYLHTNCLELSFYLGCDKFPHESELPREWENNKEALLTFMEQVHRGIKGVVTDEQGIPIANATISVSGINHGVKTASGGDYWRILNPGEYRVTAHAEGYTPSAKTCNVDYDIGATQCNFILARSNWKRIREIMAMNGNRPIPHIDPSRPMTPQQRRLQQRRLQHRLRLRAQMRLRRLNATTTLGPHTVPPTLPPAPATTLSTTIEPWGLIPPTTAGWEESETETYTEVVTEFGTEVEPEFGTKVEPEFETQLEPEFETQLEPEFEEEEEEEKEEEIATGQAFPFTTVETYTVNFGDF
B3: ELAC2 (protein, UniProt Q9BQ52 17-826, looked up)
Zinc phosphodiesterase ELAC …: SQGRTISQAPARRERPRKDPLRHLRTREKRGPSGCSGGPNTVYLQVVAAGSRDSGAALYVFSEFNRYLFNCGEGVQRLMQEHKLKVARLDNIFLTRMHWSNVGGLSGMILTLKETGLPKCVLSGPPQLEKYLEAIKIFSGPLKGIELAVRPHSAPEYEDETMTVYQIPIHSEQRRGKHQPWQSPERPLSRLSPERSSDSESNENEPHLPHGVSQRRGVRDSSLVVAFICKLHLKRGNFLVLKAKEMGLPVGTAAIAPIIAAVKDGKSITHEGREILAEELCTPPDPGAAFVVVECPDESFIQPICENATFQRYQGKADAPVALVVHMAPASVLVDSRYQQWMERFGPDTQHLVLNENCASVHNLRSHKIQTQLNLIHPDIFPLLTSFRCKKEGPTLSVPMVQGECLLKYQLRPRREWQRDAIITCNPEEFIVEALQLPNFQQSVQEYRRSAQDGPAPAEKRSQYPEIIFLGTGSAIPMKIRNVSATLVNISPDTSLLLDCGEGTFGQLCRHYGDQVDRVLGTLAAVFVSHLHADHHTGLPSILLQRERALASLGKPLHPLLVVAPNQLKAWLQQYHNQCQEVLHHISMIPAKCLQEGAEISSPAVERLISSLLRTCDLEEFQTCLVRHCKHAFGCALVHTSGWKVVYSGDTMPCEALVRMGKDATLLIHEATLEDGLEEEAVEKTHSTTSQAISVGMRMNAEFIMLNHFSQRYAKVPLFSPNFSEKVGVAFDHMKVCFGDFPTMPKLIPPLKALFAGDIEEMEERREKRELRQVRAALLSRELAGGLEDGEPQQKRAHTEEPQAKKVRAQ
B4: POU3F2 (protein, UniProt P20265 1-443, looked up)
POU domain, class 3, …: MATAASNHYSLLTSSASIVHAEPPGGMQQGAGGYREAQSLVQGDYGALQSNGHPLSHAHQWITALSHGGGGGGGGGGGGGGGGGGGGGDGSPWSTSPLGQPDIKPSVVVQQGGRGDELHGPGALQQQHQQQQQQQQQQQQQQQQQQQQQRPPHLVHHAANHHPGPGAWRSAAAAAHLPPSMGASNGGLLYSQPSFTVNGMLGAGGQPAGLHHHGLRDAHDEPHHADHHPHPHSHPHQQPPPPPPPQGPPGHPGAHHDPHSDEDTPTSDDLEQFAKQFKQRRIKLGFTQADVGLALGTLYGNVFSQTTICRFEALQLSFKNMCKLKPLLNKWLEEADSSSGSPTSIDKIAAQGRKRKKRTSIEVSVKGALESHFLKCPKPSAQEITSLADSLQLEKEVVRVWFCNRRQKEKRMTPPGGTLPGAEDVYGGSRDTPPHHGVQTPVQ

Columns and labels:
HCV proteins = target: T1, HCV proteins (Hepatitis C virus genotype 1b, UniProt Q9WMX2); experiment: Validation by Y2H pairwise matrices; type: binding;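 also: yeast two-hybrid pairwise tests of interactions first found in Y2H screens of HCV bait proteins against human cDNA libraries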
T1 construct: expressed in transfected cells

[1] = system: HCV ORFs (Gal4-DB fusions); type: binding, HCV genotype 1b, isolate con1; conditions: human protein listed by gene symbol; the value names the HCV protein it interacts with
[2] = target: T2, HCV ORFs (Gal4-DB fusions) (Hepatitis C virus genotype 1b, UniProt Q9WMX2); type: binding, HCV genotype 1b, isolate con1; conditions: human protein as prey
T2 construct: expressed in transfected cells; host or cells: Saccharomyces cerevisiae MAV203 (IMAP1) / AH109 (IMAP2)

[3] = validation of interaction with HCV protein NS3
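For IMAP Y2H IMAP1 (number of IST) in this document: yeast two-hybrid screens using HCV genotype 1b proteins fused to Gal4-DB as baits against prey cDNA libraries from human spleen and foetal brain, IMAP1 via transformation and IMAP2 via mating.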
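For Interaction with viral protein in this document: yeast two-hybrid screens using HCV genotype 1b proteins fused to Gal4-DB as baits against prey cDNA libraries from human spleen and foetal brain, IMAP1 via transformation and IMAP2 via mating.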

Row | Molecule | Y2H matrices (HCV proteins; [3]) | Interaction with viral protein [1] | IMAP Y2H IMAP1 (number of IST) ([2]; HCV protein NS3 as bait) | Y2H matrices (HCV proteins; validation of interaction with HCV protein NS4A) | IMAP Y2H IMAP1 (number of IST) ([2]; HCV protein NS4A as bait) | Y2H matrices (HCV proteins; validation of interaction with HCV protein NS2) | IMAP Y2H IMAP1 (number of IST) ([2]; HCV protein NS2 as bait)
1 | B1 | + | NS3 | 9 |  |  |  | 
2 | B2 | + | NS3 | 2 |  |  |  | 
3 | B3 |  | NS4A |  | + | 1 |  | 
4 | B4 |  | NS2 |  |  |  | + | 1
